Test results published in paper PMC12120360, “Lysine acetylation modulates s‐OPA1 GTPase activity and oligomerization in mitochondrial membrane remodeling” (Protein Science : A Publication of the Protein Society, 2025).

B1: s-OPA1 K328R (domain or fragment, human, UniProt O60313-1 195-960, looked up)
chain: ATDRGSESDKHFRKVSDKEKIDQLQEELLHTQLKYQRILERLEKENKELRKLVLQKDDKGIHHRKLKKSLIDMYSEVLDVLSDYDASYNTQDHLPRVVVVGDQSAGKTSVLEMIAQARIFPRGSGEMMTRSPVRVTLSEGPHHVALFKDSSREFDLTKEEDLAALRHEIELRMRKNVKEGCTVSPETISLNVKGPGLQRMVLVDLPGVINTVTSGMAPDTKETIFSISKAYMQNPNAIILCIQDGSVDAERSIVTDLVSQMDPHGRRTIFVLTKVDLAEKNVASPSRIQQIIEGKLFPMKALGYFAVVTGKGNSSESIEAIREYEEEFFQNSKLLKTSMLKAHQVTTRNLSLAVSDCFWKMVRESVEQQADSFKATRFNLETEWKNNYPRLRELDRNELFEKAKNEILDEVISLSQVTPKHWEEILQQSLWERVSTHVIENIYLPAAQTMNSGTFNTTVDIKLKQWTDKQLPNKAVEVAWETLQEEFSRFMTEPKGKEHDDIFDKLKEAVKEESIKRHKWNDFAEDSLRVIQHNALEDRSISDKQQWDAAIYFMEEALQARLKDTENAIENMVGPDWKKRWLYWKNRTQEQCVHNETKNELEKMLKCNEEHPAYLASDEITTVRKNLESRGVEVDPSLIKDTWHQVYRRHFLKTALNHCNLCRRGFYYYQRHFVDSELECNDVVLFWRIQRMLAITANTLRQQLTNTEVRRLEKNVKEVLEDFAEDGEKKIKLLTGKRVQLAEDLKKVREIQEKLDAFIEALHQEK
modifications: endogenous lysine acetylation, sites listed in Figure 2c
notes: Optic Atrophy 1 (OPA1), human, short form (s-OPA1), residues 195-960; domain model of isoform 1; Made as a deacetylation mimetic; source: E. coli BL21 (DE3), purified (glutathione resin, 3C protease cleavage, size exclusion chromatography)
B2: s-OPA1 K772Q (domain or fragment, human, UniProt O60313-1 195-960, looked up)
chain: ATDRGSESDKHFRKVSDKEKIDQLQEELLHTQLKYQRILERLEKENKELRKLVLQKDDKGIHHRKLKKSLIDMYSEVLDVLSDYDASYNTQDHLPRVVVVGDQSAGKTSVLEMIAQARIFPRGSGEMMTRSPVKVTLSEGPHHVALFKDSSREFDLTKEEDLAALRHEIELRMRKNVKEGCTVSPETISLNVKGPGLQRMVLVDLPGVINTVTSGMAPDTKETIFSISKAYMQNPNAIILCIQDGSVDAERSIVTDLVSQMDPHGRRTIFVLTKVDLAEKNVASPSRIQQIIEGKLFPMKALGYFAVVTGKGNSSESIEAIREYEEEFFQNSKLLKTSMLKAHQVTTRNLSLAVSDCFWKMVRESVEQQADSFKATRFNLETEWKNNYPRLRELDRNELFEKAKNEILDEVISLSQVTPKHWEEILQQSLWERVSTHVIENIYLPAAQTMNSGTFNTTVDIKLKQWTDKQLPNKAVEVAWETLQEEFSRFMTEPKGKEHDDIFDKLKEAVKEESIKRHKWNDFAEDSLRVIQHNALEDRSISDKQQWDAAIYFMEEALQARLKDTENAIENMVGPDWQKRWLYWKNRTQEQCVHNETKNELEKMLKCNEEHPAYLASDEITTVRKNLESRGVEVDPSLIKDTWHQVYRRHFLKTALNHCNLCRRGFYYYQRHFVDSELECNDVVLFWRIQRMLAITANTLRQQLTNTEVRRLEKNVKEVLEDFAEDGEKKIKLLTGKRVQLAEDLKKVREIQEKLDAFIEALHQEK
modifications: acetyl-lysine at K713 only (endogenous, by mass spectrometry)
notes: Optic Atrophy 1 (OPA1), human, short form (s-OPA1), residues 195-960; domain model of isoform 1; Gene bought from Genscript in the pGS-21a vector; source: E. coli BL21 (DE3), purified (glutathione resin, 3C protease cleavage, size exclusion chromatography)
B3: s-OPA1 K342Q (domain or fragment, human, UniProt O60313-1 195-960, looked up)
chain: ATDRGSESDKHFRKVSDKEKIDQLQEELLHTQLKYQRILERLEKENKELRKLVLQKDDKGIHHRKLKKSLIDMYSEVLDVLSDYDASYNTQDHLPRVVVVGDQSAGKTSVLEMIAQARIFPRGSGEMMTRSPVKVTLSEGPHHVALFQDSSREFDLTKEEDLAALRHEIELRMRKNVKEGCTVSPETISLNVKGPGLQRMVLVDLPGVINTVTSGMAPDTKETIFSISKAYMQNPNAIILCIQDGSVDAERSIVTDLVSQMDPHGRRTIFVLTKVDLAEKNVASPSRIQQIIEGKLFPMKALGYFAVVTGKGNSSESIEAIREYEEEFFQNSKLLKTSMLKAHQVTTRNLSLAVSDCFWKMVRESVEQQADSFKATRFNLETEWKNNYPRLRELDRNELFEKAKNEILDEVISLSQVTPKHWEEILQQSLWERVSTHVIENIYLPAAQTMNSGTFNTTVDIKLKQWTDKQLPNKAVEVAWETLQEEFSRFMTEPKGKEHDDIFDKLKEAVKEESIKRHKWNDFAEDSLRVIQHNALEDRSISDKQQWDAAIYFMEEALQARLKDTENAIENMVGPDWKKRWLYWKNRTQEQCVHNETKNELEKMLKCNEEHPAYLASDEITTVRKNLESRGVEVDPSLIKDTWHQVYRRHFLKTALNHCNLCRRGFYYYQRHFVDSELECNDVVLFWRIQRMLAITANTLRQQLTNTEVRRLEKNVKEVLEDFAEDGEKKIKLLTGKRVQLAEDLKKVREIQEKLDAFIEALHQEK
modifications: 11 additional acetylation sites (endogenous; listed in Figure 2c)
notes: as for B2
B4: s-OPA1 K342R (domain or fragment, human, UniProt O60313-1 195-960, looked up)
chain: ATDRGSESDKHFRKVSDKEKIDQLQEELLHTQLKYQRILERLEKENKELRKLVLQKDDKGIHHRKLKKSLIDMYSEVLDVLSDYDASYNTQDHLPRVVVVGDQSAGKTSVLEMIAQARIFPRGSGEMMTRSPVKVTLSEGPHHVALFRDSSREFDLTKEEDLAALRHEIELRMRKNVKEGCTVSPETISLNVKGPGLQRMVLVDLPGVINTVTSGMAPDTKETIFSISKAYMQNPNAIILCIQDGSVDAERSIVTDLVSQMDPHGRRTIFVLTKVDLAEKNVASPSRIQQIIEGKLFPMKALGYFAVVTGKGNSSESIEAIREYEEEFFQNSKLLKTSMLKAHQVTTRNLSLAVSDCFWKMVRESVEQQADSFKATRFNLETEWKNNYPRLRELDRNELFEKAKNEILDEVISLSQVTPKHWEEILQQSLWERVSTHVIENIYLPAAQTMNSGTFNTTVDIKLKQWTDKQLPNKAVEVAWETLQEEFSRFMTEPKGKEHDDIFDKLKEAVKEESIKRHKWNDFAEDSLRVIQHNALEDRSISDKQQWDAAIYFMEEALQARLKDTENAIENMVGPDWKKRWLYWKNRTQEQCVHNETKNELEKMLKCNEEHPAYLASDEITTVRKNLESRGVEVDPSLIKDTWHQVYRRHFLKTALNHCNLCRRGFYYYQRHFVDSELECNDVVLFWRIQRMLAITANTLRQQLTNTEVRRLEKNVKEVLEDFAEDGEKKIKLLTGKRVQLAEDLKKVREIQEKLDAFIEALHQEK
modifications: 18 acetylated lysine sites (endogenous; listed in Figure 2c)
notes: as for B2

Target: the molecule itself
Experiment: mass photometry; protein in solution at 75 nM final; 20 mM HEPES-NaOH pH 7.5, 130 mM NaCl, 10 mM KCl, 2 mM MgCl2, 2 mM DTT, 2% glycerol; Refeyn mass photometer; mass measured three times for each protein

Stoichiometry N, 2:
B1
B2
B3
B4
